Patent publication US20210380703A1 (RIGEL PHARMACEUTICALS, published 2021)

Target: ACVR2A on primary human myotubes (human, UniProt P27037 20-513)
Experiment: cell-based or functional assay

Chain of ACVR2A on primary human myotubes (P27037 20-513): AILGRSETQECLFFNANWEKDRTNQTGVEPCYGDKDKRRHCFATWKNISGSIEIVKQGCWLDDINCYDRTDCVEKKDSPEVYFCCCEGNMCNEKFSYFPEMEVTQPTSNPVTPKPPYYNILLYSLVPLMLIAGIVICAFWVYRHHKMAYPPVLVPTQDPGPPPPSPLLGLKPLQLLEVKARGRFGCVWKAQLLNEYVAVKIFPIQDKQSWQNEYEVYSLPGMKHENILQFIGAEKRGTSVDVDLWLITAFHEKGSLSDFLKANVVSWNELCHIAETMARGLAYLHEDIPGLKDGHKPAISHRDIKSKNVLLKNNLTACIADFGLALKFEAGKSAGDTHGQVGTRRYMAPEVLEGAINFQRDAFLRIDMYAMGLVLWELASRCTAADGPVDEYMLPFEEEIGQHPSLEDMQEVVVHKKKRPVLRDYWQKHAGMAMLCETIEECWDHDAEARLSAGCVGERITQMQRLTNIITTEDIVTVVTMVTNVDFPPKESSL

Binder	Phospho-SMAD3 Human Skeletal Muscle GDF8
369_D02 (antibody, V domains shown) VH: EVQLLESGGGLVQPGGSLRLSCAASGFTFSDYSMNWVRQAPGKGLEWVSNINYNSGYTGYADSVKGRFTISRDNSKNTLYLQMNSLRAEDTAVYYCARSANWHDTALDYWGQGTLVTVSS VL: DIQMTQSPSSLSASVGDRVTITCRASQSILSYLNWYQQKPGKAPKLVIYAVTSRASGVPSRFSGSGSGTDFTLTISSLQPEDFATYYCQQSYDTPLTFGGGTKVEIK	0.0135
370_C03 (antibody, V domains shown) VH: EVQLLESGGGLVQPGGSLRLSCAASGFTFSSYGMNWVRQAPGKGLEWVAGINYNGGYKGYADSVKGRFTISRDNSKNTLYLQMNSLRAEDTAVYYCARSANWHDTALDYWGQGTLVTVSS VL: DIQMTQSPSSLSASVGDRVTITCRASQSILTYLNWYQQKPGKAPKLLIYYVTNRQSGVPSRFSGSGSGTDFTLTISSLQPEDFATYYCQQSYSSPLTFGGGTKVEIK	0.0029
373_A10 (antibody, V domains shown) VH: EVQLLESGGGLVQPGGSLRLSCAASGFTFSSYGMNWVRQAPGKGLEWVSGINYNSGYTSYADSVKGRFTISRDNSKNTLYLQMNSLRAEDTAVYYCARSANWHDTALDYWGQGTLVTVSS VL: DIQMTQSPSSLSASVGDRVTITCRASQSILSYLNWYQQKPGKAPKLVIYAATSRASGVPSRFSGSGSGTDFTLTISSLQPEDFATYYCQQSYDLPLTFGGGTKVEIK	0.0111
372_F08 (antibody, V domains shown) VH: EVQLLESGGGLVQPGGSLRLSCAASGFTFSDYSMNWVRQAPGKGLEWVSNINYNSGYTGYADSVKGRFTISRDNSKNTLYLQMNSLRAEDTAVYYCARSANWHDTALDYWGQGTLVTVSS VL: DIQMTQSPSSLSASVGDRVTITCRASQSILTYVNWYQQKPGKAPKLVIYAATSRASGVPSRFSGSGSGTDFTLTISSLQPEDFATYYCQQSYDTPLTFGGGTKVEIK	0.023
373_C02 (antibody, V domains shown) VH: EVQLLESGGGLVQPGGSLRLSCAASGFTFDDYSMNWVRQAPGKGLEWVSGINYNSGYKGYADSVKGRFTISRDNSKNTLYLQMNSLRAEDTAVYYCARSANWHDTALDYWGQGTLVTVSS VL: DIQMTQSPSSLSASVGDRVTITCRASQSILSYVNWYQQKPGKAPKLLIYAATSRASGVPSRFSGSGSGTDFTLTISSLQPEDFATYYCQQSYNTPLTFGGGTKVEIK	0.0083
370_E09 (antibody, V domains shown) VH: EVQLLESGGGLVQPGGSLRLSCAASGFTFDDSSMHWVRQAPGKGLEWVSNINYNGGYTGYADSVKGRFTISRDNSKNTLYLQMNSLRAEDTAVYYCAKSANWHDTALDYWGQGTLVTVSS VL: DIQMTQSPSSLSASVGDRVTITCRASQSILSYVNWYQQKPGKAPKLVIYAATSRASGVPSRFSGSGSGTDFTLTISSLQPEDFATYYCQQSYELPLTFGGGTKVEIK	0.0093
370_D04 (antibody, V domains shown) VH: EVQLLESGGGLVQPGGSLRLSCAASGFTFDSYSMNWVRQAPGKGLEWVANINYNSGYKGYADSVKGRFTISRDNSKNTLYLQMNSLRAEDTAVYYCARSANWHDTALDYWGQGTLVTVSS VL: DIQMTQSPSSLSASVGDRVTITCRASQSILTYLNWYQQKPGKAPKLVIYAATSRASGVPSRFSGSGSGTDFTLTISSLQPEDFATYYCQQSYDNPLTFGGGTKVEIK	0.0074
369_F01 (antibody, V domains shown) VH: EVQLLESGGGLVQPGGSLRLSCAASGFTFSSYGMNWVRQAPGKGLEWVSGINYNGGYKSYADSVKGRFTISRDNSKNTLYLQMNSLRAEDTAVYYCARSANWHDTALDYWGQGTLVTVSS VL: DIQMTQSPSSLSASVGDRVTITCRASQSILTYVNWYQQKPGKAPKLLIYAATSRASGVPSRFSGSGSGTDFTLTISSLQPEDFATYYCQQSYELPLTFGGGTKVEIK	0.0317

Next, values leading:

Phospho-SMAD3 Human Skeletal Muscle GDF8	Binder
0.23	374_D08 (antibody, V domains shown) VH: EVQLLESGGGLVQPGGSLRLSCAASGFTFDSYGMNWVRQAPGKGLEWVSGINYNSGYTGYADSVKGRFTISRDNSKNTLYLQMNSLRAEDTAVYYCARSANWHDTHLDYWGQGTLVTVSS VL: DIQMTQSPSSLSASVGDRVTITCRASQSILTYLNWYQQKPGKAPKLLIYAATSRHSGVPSRFSGSGSGTDFTLTISSLQPEDFATYYCQQSYESPLTFGGGTKVEIK
0.006	373_D10 (antibody, V domains shown) VH: EVQLLESGGGLVQPGGSLRLSCAASGFTFDSYSMNWVRQAPGKGLEWVSNINYNSGYKGYADSVKGRFTISRDNSKNTLYLQMNSLRAEDTAVYYCARSANWHDTALDYWGQGTLVTVSS VL: DIQMTQSPSSLSASVGDRVTITCRASQSILSYVNWYQQKPGKAPKLLIYAATSRASGVPSRFSGSGSGTDFTLTISSLQPEDFATYYCQQSYDLPLTFGGGTKVEIK
0.0407	374_B06 (antibody, V domains shown) VH: EVQLLESGGGLVQPGGSLRLSCAASGFTFDSYSMNWVRQAPGKGLEWVAGINYNSGYKGYADSVKGRFTISRDNSKNTLYLQMNSLRAEDTAVYYCARSANWHDTHLDYWGQGTLVTVSS VL: DIQMTQSPSSLSASVGDRVTITCRASQSILTYVNWYQQKPGKAPKLLIYAATSRASGVPSRFSGSGSGTDFTLTISSLQPEDFATYYCQQSYDTPLTFGGGTKVEIK
0.0078	373_D04 (antibody, V domains shown) VH: EVQLLESGGGLVQPGGSLRLSCAASGFTFDSYSMNWVRQAPGKGLEWVSGINYNSGYKGYADSVKGRFTISRDNSKNTLYLQMNSLRAEDTAVYYCARSANWHDTALDYWGQGTLVTVSS VL: DIQMTQSPSSLSASVGDRVTITCRASQSILSYLNWYQQKPGKAPKLLIYAATSRHSGVPSRFSGSGSGTDFTLTISSLQPEDFATYYCQQSYDSPLTFGGGTKVEIK
0.0132	374_G05 (antibody, V domains shown) VH: EVQLLESGGGLVQPGGSLRLSCAASGFTFSSYSMNWVRQAPGKGLEWVSNINYNSGYKGYADSVKGRFTISRDNSKNTLYLQMNSLRAEDTAVYYCARGATWHDTHLDYWGQGTLVTVSS VL: DIQMTQSPSSLSASVGDRVTITCRASQSIISYLNWYQQKPGKAPKLLIYAATSRASGVPSRFSGSGSGTDFTLTISSLQPEDFATYYCQQSYDLPLTFGGGTKVEIK
0.0138	374_C06 (antibody, V domains shown) VH: EVQLLESGGGLVQPGGSLRLSCAASGFTFDDYSMNWVRQAPGKGLEWVSSINYNSGYKGYADSVKGRFTISRDNSKNTLYLQMNSLRAEDTAVYYCARSANWHDTALDYWGQGTLVTVSS VL: DIQMTQSPSSLSASVGDRVTITCRASQSILTYVNWYQQKPGKAPKLLIYAATSRASGVPSRFSGSGSGTDFTLTISSLQPEDFATYYCQQSYNSPLTFGGGTKVEIK
0.0582	374_C10 (antibody, V domains shown) VH: EVQLLESGGGLVQPGGSLRLSCAASGFTFSSYSMNWVRQAPGKGLEWVSSINYNGGYKGYADSVKGRFTISRDNSKNTLYLQMNSLRAEDTAVYYCARGATWHDTHLDYWGQGTLVTVSS VL: DIQMTQSPSSLSASVGDRVTITCRASQSIVTYLNWYQQKPGKAPKLLIYAATSLASGVPSRFSGSGSGTDFTLTISSLQPEDFATYYCQQSYNTPLTFGGGTKVEIK
